Drawing on paper doi:10.1101/2020.11.04.368696v1, this text covers Km and kcat for one substance.

For this data set, the system named is CC/C=C\CCO. The data set can be described thus: purified protein. The following applies: 2 mM acetyl-CoA, 50 °C.

On to “CATec3 (CAT3_ECOLIX) (Escherichia coli; Y20F)”, for which the Km is recorded as 6.4 ± 2.2 mM and the kcat is 2.3 ± 0.2 s⁻¹.
